Measured values taken from the RNAGym collection of RNA variant scans (doi:10.1101/gr.219683.116).

B1: mRNA-splicing (parent)
chain: AGUUGCUGCUGGGAGCUCCAGCACAGUGAAAUGGACAGAAGGGCAGAGCAA

Variants of: B1
Experiment: exon inclusion enrichment index; higher = more inclusion; WT1 exon 5 minigene, HEK293

Variant | exon inclusion enrichment index
G5U G8U C9U G26A U27G | 0.338
G5U G8U C9U U32A G33A | 0.0443
G5U G8U C9U U32A G33U | 0.0405
G5U G8U C9U U32A G33C | 0.219
G5U G8U C9U G41C G42C | 0.753
G5U G8U C9U G41C G42U | 0.643
G5U G8U C9U G41C G42A | 0.229
G5U G8U C9U G48C | 0.251
G5U G8U C9U G48A | 0.314
G5U G8U C9U G48U | 0.22
G5U G8U C9U C22U | 0.095
G5U G8U C9U C22A | 0.117
G5U G8U C9U C22G | 0.183
G5U G8U C9U U17G C18A | 0.124
G5U G8U C9U U17G C18U | 0.0929
G5U G8U C9U U17G C18G | 0.13
C6A U7A C9A | 1.65
G5U G8U C9U C44U A45C | 0.215
G5U G8U C9U C44U A45G | 0.043
G5U G8U C9U C44U A45U | 0.0921
G5U G8U C9U G28U A29G | 0.118

Variant | exon inclusion enrichment index
G5U G8U C9U G28U A29C | 0.0643
G5U G8U C9U G28U A29U | 0.0195
G5U G8U C9U C36U A37C | 0.0658
G5U G8U C9U C36U A37U | 0.081
G5U G8U C9U C36U A37G | 0.114
G5U G8U C9U U27C G28A | 0.135
G5U G8U C9U U27C G28U | 0.0729
G5U G8U C9U U27C G28C | 0.257
G5U G8U C9U G21U C22G | 0.103
G5U G8U C9U G21U C22U | 0.0182
G5U G8U C9U G21U C22A | 0.0438
G5U G8U C9U U32G G33C | 0.0926
G5U G8U C9U U32G G33A | 0.0116
G5U G8U C9U U32G G33U | 0.0291
G5U G8U C9U G28A A29G | 0.0263
G5U G8U C9U G28A A29U | 0.0186
G5U G8U C9U G28A A29C | 0.0709
G5U G8U C9U G15C C16U | 0.0902
G5U G8U C9U G15C C16G | 0.179
G5U G8U C9U G15C C16A | 0.0947
G5U G8U C9U G38C A39U | 0.00329

Variant | exon inclusion enrichment index
G5U G8U C9U G38C A39G | 0.136
G5U G8U C9U G38C A39C | 0.152
G5U G8U C9U G33C G34U | 0.0844
G5U G8U C9U G33C G34A | 0.0575
G5U G8U C9U G33C G34C | 0.0648
G5U G8U C9U G33A G34U | 0.0046
G5U G8U C9U G33A G34C | 0.0112
G5U G8U C9U G33A G34A | 0.0153
G5U G8U C9U G43C C44A | 0.722
G5U G8U C9U G43C C44U | 0.0876
G5U G8U C9U G43C C44G | 1.3
C6A G8C C9U U10C | 1.43
G5U G8U C9U C19U A20U | 0.0205
G5U G8U C9U C19U A20C | 0.0318
G5U G8U C9U C19U A20G | 0.0101
G5U G8U C9U G46A A47G | 0.0611
G5U G8U C9U G46A A47C | 0.466
G5U G8U C9U G46A A47U | 0.164
G5U G8U C9U U10C G11U | 0.279
G5U G8U C9U U10C G11C | 0.932
G5U G8U C9U U10C G11A | 0.133

Variant | exon inclusion enrichment index
G5U G8U C9U G34A A35G | 0.0238
G5U G8U C9U G34A A35C | 0.0912
G5U G8U C9U G34A A35U | 0.0163
G5U U7C C9A U10C | 2.66
G5U G8U C9U C44A | 0.454
G5U G8U C9U C44U | 0.0292
G5U G8U C9U C44G | 0.278
G5U G8U C9U G13U A14U | 0.0249
G5U G8U C9U G13U A14G | 0.0118
G5U G8U C9U G13U A14C | 0.0727
G5U G8U C9U C19G A20U | 0.14
G5U G8U C9U C19G A20C | 0.13
G5U G8U C9U C19G A20G | 0.0362
G5U G8U C9U G38U | 0.0205
G5U G8U C9U G38A | 0.0418
G5U G8U C9U G38C | 0.0741
G5U U7A G8U C9A | 0.367
G5U U7A G8U C9U | 0.343
G5U G8U C9U G26C | 0.177
G5U G8U C9U G26U | 0.161
G5U G8U C9U G26A | 0.201
